Experimental data from publication doi:10.1101/2020.04.01.839274 (bioRxiv, 2020).

B1: endogenous EXOSC10 (natural protein, mouse (endogenous in Neuro-2a), UniProt P56960 1-887, looked up)
chain: MAPPSPREHQSAPATSATKPDAEMVLPGFPDADSFVKFALGSVVAVTKASGGLPQFGDEYDFYRSFPAFQAFCETQGDRLLQCMSRVMQYHGCRSNIKDRSKVTELEDKFDLLVDTNDVILERVGMLLDEASGVNKHQQPVLPAGLQVPKTIVSSWNRKAGEYGKKAKSETFRLLHAKNIVRPQLRFREKIDNSNTPFLPKIFVKPNARKPLPLALSKERRERPQDRPEDLDVPPALADFIHQQRTQQVEQDMFAHPYQYELDHFTPPQSVLQRPKPQLYRAVGETPCHLVSSLDELVELNEKLLGCQEFAVDLEHHSYRSFLGLTCLMQISTRTEDFIVDTLELRSDMYILNESLTDPAIVKVFHGADSDIEWLQKDFGLYVVNMFDTHQAARLLNLARHSLDHLLRLYCGVESNKQYQLADWRIRPLPEEMLSYARDDTHYLLYIYDRMRLELWERGNHQPVQLQVVWQRSRDICLKKFVKPIFTDESYLELYRKQKKHLNSQQLTAFQLLFAWRDKTARREDESYGYVLPNHMMLKIAEELPKEPQGIIACCNPVPPLVRQQINEMHLLIQQAREMPLLKSENAAGVRKSGPLPSAERLENDLFGPHDCSHAPPDNYQNTSTDGTLPLQKQPSLFTEGKEETSVDAGCLLATAVITLFSEPNTEEGGKTPLTVAQKKAQNIMQSFENPFRMFLPSLEHKAHISQAAKFDPSSKIYEISNRWKLASQVQVQKEPKEATKKKVAEQTAAREEAKEEAAAGVLEQAIPVRQQAALENATKKRERATSDLRTIEQKQEKKRLKSSKKAKDPDPPGKDFSPYDYSQSDFRAFAGDSKSKPSSQFDPNKLAPSGKKGVGAKKCKQSVGNKSMSFAVGKSDRGFRHNWPKR
B2: endogenous EXOSC9 (natural protein, mouse (endogenous in Neuro-2a), UniProt Q9JHI7 1-438, looked up)
chain: MKETPLSNCERRFLLRAIEEKKRLDGRQTYDYRNIRISFGTDYGCCIVELGKTRVLGQVSCELVSPKLNRATEGILFFNLELSQMAAPAFEPGRQSDLLVKLNRLLERCLRNSKCIDTESLCVVAGEKVWQIRVDLHLLNHDGNIIDAASIAAIVALCHFRRPDVSVQGEEVTLYTPEERDPVPLSIHHMPICVSFAFFQQGTYLLVDPNEREERVMDGLLVIAMNKHREICTIQSSGGIMLLKDQVFRCSKIAGVKVAEITELIQKALENDQRVRKEGGKFGFAESIANQRITAFKMETAPIDTSNIEERAEEIIAEAEPPPEVVSQPVLWTPGTAQIGDGIENSWGDLEDSEKEEEEEEGGIDEAVILDDTKMDTGEVSDIGSQGAPIVLSDSEEEEMIILEPEKNPKKIRAQTSANQKAPSKGQGKRKKKKRTAN
B3: endogenous EXOSC3 (natural protein, mouse (endogenous in Neuro-2a), UniProt Q7TQK4 1-274, looked up)
chain: MAEVLSAGPESVAGCRARAVHKVLNQVVLPGEELVLPDHEDVDGLGGAGEQPLRLNAGARPRLRVVCGPGLRRCGDRLLVTKCGRLRHKEPSGGGGGVYWVDSQQKRYVPVKGDHVIGIVIAKSGDIFKVDVGGSEPASLSYLAFEGATKRNRPNVQVGDLIYGQCVVANKDMEPEMVCIDSCGRANGMGVIGQDGLLFKVTLGLIRKLLAPDCEIVQELGKLYPLEIVFGMNGRIWVKAKTIQQTLILANVLEACEHMTTEQRKQIFARLAES

Each binder was assayed against Myc-tagged mouse EXOSC5 p.Leu206His (mouse, UniProt Q9CRA8 1-235, L206H) (assay: co-IP).
Chain of Myc-tagged mouse EXOSC5 p.Leu206His (Q9CRA8 whole entry L206H): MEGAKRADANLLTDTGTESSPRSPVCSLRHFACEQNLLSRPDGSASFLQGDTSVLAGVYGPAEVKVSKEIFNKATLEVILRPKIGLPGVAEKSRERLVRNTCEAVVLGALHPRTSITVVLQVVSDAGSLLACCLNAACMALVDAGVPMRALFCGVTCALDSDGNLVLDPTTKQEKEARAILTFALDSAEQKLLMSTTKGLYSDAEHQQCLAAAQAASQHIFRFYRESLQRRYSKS

% EXOSC subunit bound relative to wild-type EXOSC5 [%]	Binder
21	B1
16	B2
9	B3

These binders were tested against Myc-tagged mouse EXOSC5 p.Thr114Ile (mouse, UniProt Q9CRA8 1-235, T114I) (assay: co-IP).
Chain of Myc-tagged mouse EXOSC5 p.Thr114Ile (Q9CRA8 whole entry T114I): as the sequence (Q9CRA8 whole entry L206H) above, with T114I, H206L counted along it

% EXOSC subunit bound relative to wild-type EXOSC5 [%]	Binder
40	B1
24	B2
28	B3
